Patent publication US8034904B2, “Anti-IGF-I receptor antibody” (Immunogen Inc., priority 2002, dated 2011)

How the values were obtained:
[1] = biological target: T1, IGF-I receptor of 3T3 cells (Mus musculus, UniProt Q60751); test: Immunoprecipitation of IGF-I receptor from 3T3 cells; type: binding
T1 construct: endogenous in cells; host or cells: 3T3 cells (mouse)
Description: (§1) A Western blot of the EM164 antibody immunoprecipitate was detected using a rabbit polyclonal anti-IGF-I receptor beta chain (C-terminus) antibody (Santa Cruz Biotechnology) and a goat-anti-rabbit-IgG-antibody-horseradish peroxidase conjugate, followed by washes and enhanced chemiluminescence (ECL) detection.

[2] = system: Akt and Erk1/2; test: IGF-I receptor signaling in MCF-7 cells (Western blots, phospho-Akt and phospho-Erk1/2); type: cell-based, human
[3] = system: SK-LU-1 cells; test: Growth and survival of SK-LU-1 cells (MTT assay); type: cell-based, human
Procedure: (§2) Several human tumor cell lines were tested in serum-free conditions for their growth and survival response to IGF-I. These cell lines were treated with EM164 antibody in the presence of IGF-I, IGF-II, or serum, and their growth and survival responses were measured using an MTT assay after 2-4 days. Approximately 1500 cells were plated in a 96-well plate in regular medium with serum, which was replaced with serum-free medium the following day (either serum-free RPMI medium supplemented with transferrin and BSA, or phenol-red free medium as specified by Dufourny, B. et al., 1997, J. Biol. Chem., 272, 31163-31171). After one day of growth in serum-free medium, the cells were incubated with about 75 μL of 10 μg/mL antibody for 30 min.-3 h, followed by the addition of 25 μL of IGF-I (or IGF-II or serum) solution to obtain a final concentration of 10 ng/mL IGF-I, or 20 ng/mL IGF-II, or 0.04-10% serum. In some experiments, the cells were stimulated first with IGF-I for 15 min before the addition of EM164 antibody, or both IGF-I and EM164 antibody were added together. The cells were then allowed to grow for another 2-3 days. A solution of MTT (3-(4,5)-dimethylthiazol-2-yl)-2,5-diphenyltetrazolium bromide; 25 μL of a 5 mg/mL solution in PBS) was then added and the cells were returned to the incubator for 2-3 h. The medium was then removed and replaced by 100 μL DMSO, mixed, and the absorbance of the plate was measured at 545 nm.

[4] = system: HT-3 (cervical) cells; test: Growth and survival of HT-3 cells (MTT assay); type: cell-based, human; details: 5-10 μg/mL EM164, 10 ng/mL IGF-I
Procedure: as §2, with “A solution of MTT (3-(4,5)-dimethylthiazol-2-yl)-2,5-diphenyltetrazolium bromide; 25 μL of a 5 mg/mL solution in PBS) was then added and the cells were returned to the incubator for 2-3 h.” left out

[5] = system: RD (rhabdomyocarcoma) cells; test: Growth and survival of RD cells (MTT assay); type: cell-based, human
Procedure: as §2

[6] = biological target: T2, human insulin receptor (Homo sapiens, UniProt P06213); test: FACS binding to cells overexpressing human insulin receptor; details: EM164 50-100 nM
T2 construct: expressed in transfected cells; host or cells: 3T3-like cells of IGF-I receptor deficient mice
Procedure: Incubation of EM164 antibody (50-100 nM) in 100 μL cold FACS buffer (1 mg/mL BSA in Dulbecco's MEM medium) was performed using cells overexpressing IGF-I receptor and using cells overexpressing insulin receptor (2×10^5 cells/mL) in a round-bottom 96-well plate for 1 h. The cells were pelleted by centrifugation and washed with cold FACS buffer by gentle flicking, followed by incubation with goat-anti-mouse-IgG-antibody-FITC conjugate (100 μL; 10 μg/mL in FACS buffer) on ice for 1 h. The cells were pelleted, washed, and resuspended in 120 μL of 1% formaldehyde solution in PBS. The plate was analyzed using a FACSCalibur reader (BD Biosciences).

[7] = system: SK-Mel-37 cells; test: Growth and survival of SK-Mel-37 cells (MTT assay); type: cell-based, human; details: 5-10 μg/mL EM164, 10 ng/mL IGF-I
Procedure: as §2, with “A solution of MTT (3-(4,5)-dimethylthiazol-2-yl)-2,5-diphenyltetrazolium bromide; 25 μL of a 5 mg/mL solution in PBS) was then added and the cells were returned to the incubator for 2-3 h.” left out

[8] = biological target: T3, IGF-I receptor on MCF-7 cells (Homo sapiens, UniProt P08069); test: FACS binding to human breast cancer MCF-7 cells
T3 construct: human breast cancer MCF-7 cells, which expressed IGF-I receptor; endogenous in cells; host or cells: MCF-7 human breast cancer cells
Procedure: The cells were pelleted by centrifugation and washed with cold FACS buffer by gentle flicking, followed by incubation with goat-anti-mouse-IgG-antibody-FITC conjugate (100 μL; 10 μg/mL in FACS buffer) on ice for 1 h. The cells were pelleted, washed, and resuspended in 120 μL of 1% formaldehyde solution in PBS. The plate was analyzed using a FACSCalibur reader (BD Biosciences).

[9] = system: NCI-H596 cells; test: Growth and survival of NCI-H596 cells (MTT assay); type: cell-based, human
Procedure: as §2

[10] = system: Akt and Erk1/2; test: IGF-I receptor signaling in SaOS-2 cells (Western blots, phospho-Akt and phospho-Erk1/2); type: cell-based, human
[11] = biological target: T4, IGF-I receptor of MCF-7 cells (Homo sapiens, UniProt P08069); test: Immunoprecipitation of IGF-I receptor from MCF-7 lysate; type: binding; details: MCF-7 lysate (human)
T4 construct: human breast cancer MCF-7 cells, which expressed IGF-I receptor; endogenous in cells; host or cells: MCF-7 human breast cancer cells
Description: as §1

[12] = system: Human pancreatic cancer BxPC-3 xenografts; test: BxPC-3 pancreatic cancer xenograft in SCID/ICR mice; type: in vivo, mouse
Procedure: Human pancreatic cancer xenografts were established in 5 week-old, female SCID/ICR mice (Taconic) by subcutaneous injections of 10^7 BxPC-3 cells in PBS (day 0). The mice bearing established tumors of 80 mm^3 were then treated with EM164 alone (13 injections of 0.8 mg/mouse, i.v., lateral tail vein, on days 12, 16, 19, 23, 26, 29, 36, 43, 50, 54, 58, 61 and 64), with gemcitabine alone (two injections of 150 mg/kg/mouse, i.p., on days 12 and 19), with a combination of gemcitabine and. EM164 following the above schedules, PBS alone, and a control antibody alone (following the same schedule as EM164) using five mice in each of the five treatment groups.

[13] = system: MCF-7 cells; test: Growth inhibition of MCF-7 cells by counting cells; type: cell-based, human; details: 10 μg/mL EM164
Procedure: The growth inhibition of MCF-7 cells by EM164 antibody was measured by counting cells. Thus, in a 12-well plate, about 7500 cells were plated in RPMI medium with 10% FBS, in the presence or absence of 10 μg/mL EM164 antibody. After 5 days of growth, the cell count for the untreated control sample was 20.5×10^4 cells, in contrast to a cell count of only 1.7×10^4 cells for the EM164 antibody-treated sample.

[14] = system: SaOS-2 (osteosarcoma) cells; test: Growth and survival of SaOS-2 cells (MTT assay); type: cell-based, human
Procedure: as §2

[15] = system: IGF-I receptor of goat fibroblast cells; test: Immunoprecipitation of IGF-I receptor from goat fibroblast cells; type: binding
Description: as §1

[16] = 5-10 μg/mL EM164, 10 ng/mL IGF-I
[17] = 5-10 μg/mL EM164, MTT or colony formation assay

T1 sequence (Q60751 31-1373): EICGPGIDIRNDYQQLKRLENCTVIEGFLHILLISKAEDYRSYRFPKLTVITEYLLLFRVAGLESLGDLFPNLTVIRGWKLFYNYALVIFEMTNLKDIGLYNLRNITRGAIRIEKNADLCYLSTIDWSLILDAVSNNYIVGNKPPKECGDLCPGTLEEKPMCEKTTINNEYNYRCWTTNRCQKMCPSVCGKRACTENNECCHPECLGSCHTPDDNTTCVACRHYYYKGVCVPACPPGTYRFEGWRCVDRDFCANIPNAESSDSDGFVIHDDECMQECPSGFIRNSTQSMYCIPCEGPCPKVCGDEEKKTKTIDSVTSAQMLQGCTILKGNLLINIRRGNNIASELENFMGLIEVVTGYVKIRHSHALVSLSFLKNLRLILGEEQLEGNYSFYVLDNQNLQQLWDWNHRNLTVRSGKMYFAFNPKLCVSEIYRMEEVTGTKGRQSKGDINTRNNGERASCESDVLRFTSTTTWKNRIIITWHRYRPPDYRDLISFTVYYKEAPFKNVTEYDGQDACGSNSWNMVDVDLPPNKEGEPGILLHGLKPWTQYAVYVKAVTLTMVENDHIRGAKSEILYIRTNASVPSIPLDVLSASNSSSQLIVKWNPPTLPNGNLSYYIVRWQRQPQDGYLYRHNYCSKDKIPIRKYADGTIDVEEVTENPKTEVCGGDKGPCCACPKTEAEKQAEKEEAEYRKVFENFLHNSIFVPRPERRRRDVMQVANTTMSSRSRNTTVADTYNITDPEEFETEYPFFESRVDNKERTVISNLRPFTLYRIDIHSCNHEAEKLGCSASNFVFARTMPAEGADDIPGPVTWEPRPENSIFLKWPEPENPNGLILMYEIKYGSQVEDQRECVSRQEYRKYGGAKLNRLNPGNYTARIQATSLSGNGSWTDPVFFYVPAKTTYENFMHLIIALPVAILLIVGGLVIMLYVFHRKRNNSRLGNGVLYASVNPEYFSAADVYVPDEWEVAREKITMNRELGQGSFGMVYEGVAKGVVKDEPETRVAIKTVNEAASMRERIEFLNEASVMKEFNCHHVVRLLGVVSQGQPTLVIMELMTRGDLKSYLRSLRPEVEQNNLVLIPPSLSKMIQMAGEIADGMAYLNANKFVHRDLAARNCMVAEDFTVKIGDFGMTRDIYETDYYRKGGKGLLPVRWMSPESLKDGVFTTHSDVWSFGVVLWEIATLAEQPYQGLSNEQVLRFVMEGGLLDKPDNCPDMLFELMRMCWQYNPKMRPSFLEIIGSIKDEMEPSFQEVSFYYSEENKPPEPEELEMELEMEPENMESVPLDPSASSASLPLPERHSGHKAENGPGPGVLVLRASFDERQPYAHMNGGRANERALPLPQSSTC

B1: EM164: murine anti-IGF-I receptor monoclonal antibody, IgG1 with kappa light chain, hybridoma ATCC PTA-4457; heavy SEQ ID NO:7, light SEQ ID NO:8 (antibody)
heavy: QVQLQQSGAELVKPGASVKLSCKASGYTFTSYWMHWVKQRPGQGLEWIGEINPSNGRTNYNEKFKRKATLTVDKSSSTAYMQLSSLTSEDSAVYYFARGRPDYYGSSKWYFDVWGAGTTVTVSS
light: DVLMTQTPLSLPVSLGDQASISCRSSQSIVHSNVNTYLEWYLQKPGQSPKLLIYKVSNRFSGVPDRFSGSGSGTDFTLRISRVEAEDLGIYYCFQGSHVPPTFGGGTKLEIKR
modifications: antibody heavy chain; antibody light chain
binding to IGF-I receptor (immunoprecipitation) [1]: did not bind
intracellular IGF-I receptor signaling [2]: almost completely inhibited
activation of Akt and Erk1/2 ([2]; IGF-I stimulated): inhibited in a dose-dependent manner
Inhibition by EM164 antibody of IGF-I-stimulated growth in serum-free medium [3, 16]: 100%
% Inhibition by EM164 antibody of Growth/survival of cells in 1.25-10% serum [3, 17]: No
Inhibition by EM164 antibody of IGF-I-stimulated growth in serum-free medium [4]: 70-90%
Inhibition by EM164 antibody of IGF-I-stimulated growth in serum-free medium [5, 16]: 85-100%
% Inhibition by EM164 antibody of Growth/survival of cells in 1.25-10% serum [5, 17]: Yes
fluorescence shift (FACS) [6]: insignificant shift
Inhibition by EM164 antibody of IGF-I-stimulated growth in serum-free medium [7]: 85%
fluorescence shift (FACS) [8]: strong fluorescence shift
Inhibition by EM164 antibody of IGF-I-stimulated growth in serum-free medium [9, 16]: 100%
% Inhibition by EM164 antibody of Growth/survival of cells in 1.25-10% serum [9, 17]: Weakly
EGF-stimulated phosphorylation of Erk1/2 [10]: did not inhibit
intracellular IGF-I receptor signaling [10]: almost completely inhibited
activation of Akt and Erk1/2 ([10]; IGF-I stimulated): inhibited in a dose-dependent manner
immunoprecipitation of IGF-I receptor [11]: can be used for immunoprecipitation of IGF-I receptor
day on which measurable tumor regrowth was seen in more than one animal ([12]; BxPC-3 xenografts): 43 days
total regression of tumor xenografts (animals) ([12]; EM164 0.8 mg/mouse i.v. x13, gemcitabine 150 mg/kg i.p. days 12 and 19, five mice per group): 4 of 5
mean tumor volumes on day 74 in comparison with the control treatments ([12]; P=0.029 (EM164) and 0.002 (combination), two-tailed T-test): significantly smaller
growth of established BxPC-3 xenografts ([12]; another study, intraperitoneal injections): inhibited the growth
inhibition of the growth of established BxPC-3 xenografts, intraperitoneal vs intravenous administration ([12]; mouse, in vivo): equivalent inhibition
inhibition of the growth of established BxPC-3 xenografts, murine vs humanized ([12]; mouse, in vivo): equivalent inhibition
cell count after 5 days of growth ([13]; RPMI with 10% FBS, about 7500 cells plated, untreated control 20.5×10^4 cells): 1.7×10^4 cells
inhibition of growth of MCF-7 cells ([13]; in 5 days, 10% FBS): about 12 fold
Inhibition by EM164 antibody of IGF-I-stimulated growth in serum-free medium [14, 16]: 100%
% Inhibition by EM164 antibody of Growth/survival of cells in 1.25-10% serum [14, 17]: Yes
binding to IGF-I receptor (immunoprecipitation) [15]: did not bind
